B1: GpH7-A5/GpH7-B3 variant (I336_12R)/GpL16-k0 (antibody, human IgG1, kappa)
heavy 1: not shown
heavy 2: not shown
light: DIVMTQSPLSLPVTPGEPASISCQASESLVHSNRNTYLHWYLQKPGQSPQLLIYKVSNRFSGVPDRFSGSGSGTDFTLKISRVEAEDVGVYYCSQNTHVPPTFGQGTKVEIERTVAAPSVFIFPPSDEQLKSGTASVVCLLNNFYPREAKVQWKVDNALQSGNSQESVTEQDSKDSTYSLSSTLTLSKADYEKHKVYACEVTHQGLSSPVTKSFNRGEC
notes: Heterodimerized; only the B3 chain altered; also called He Ab I336_12R
B2: GpH7-A5/GpH7-B3 variant (T335_12R)/GpL16-k0 (antibody, human IgG1, kappa)
heavy 1: not shown
heavy 2: not shown
light: B1 light
notes: Heterodimerized; only the B3 chain altered; also called He Ab T335_12R
B3: GpH7-A5/GpH7-B3 variant (S337_06M)/GpL16-k0 (antibody, human IgG1, kappa)
heavy 1: not shown
heavy 2: not shown
light: B1 light
notes: Heterodimerized; only the B3 chain altered; also called He Ab S337_06M
B4: GpH7-A5/GpH7-B3 variant (S337_10E)/GpL16-k0 (antibody, human IgG1, kappa)
heavy 1: not shown
heavy 2: not shown
light: B1 light
notes: Heterodimerized; only the B3 chain altered; also called He Ab S337_10E
B5: GpH7-A5/GpH7-B3 variant (I336_14T)/GpL16-k0 (antibody, human IgG1, kappa)
heavy 1: not shown
heavy 2: not shown
light: B1 light
notes: Heterodimerized; only the B3 chain altered; also called He Ab I336_14T
B6: GpH7-A5/GpH7-B3 variant (S337_19Q)/GpL16-k0 (antibody, human IgG1, kappa)
heavy 1: not shown
heavy 2: not shown
light: B1 light
notes: Heterodimerized; only the B3 chain altered; also called He Ab S337_19Q
B7: GpH7-A5/GpH7-B3 variant (T335_09D)/GpL16-k0 (antibody, human IgG1, kappa)
heavy 1: not shown
heavy 2: not shown
light: B1 light
notes: Heterodimerized; only the B3 chain altered; also called He Ab T335_09D
B8: GpH7-A5/GpH7-B3 variant (S337_09D)/GpL16-k0 (antibody, human IgG1, kappa)
heavy 1: not shown
heavy 2: not shown
light: B1 light
notes: Heterodimerized; only the B3 chain altered; also called He Ab S337_09D
B9: GpH7-A5/GpH7-B3 variant (T335_11K)/GpL16-k0 (antibody, human IgG1, kappa)
heavy 1: not shown
heavy 2: not shown
light: B1 light
notes: Heterodimerized; only the B3 chain altered; also called He Ab T335_11K
B10: GpH7-A5/GpH7-B3 variant (T335_10E)/GpL16-k0 (antibody, human IgG1, kappa)
heavy 1: not shown
heavy 2: not shown
light: B1 light
notes: Heterodimerized; only the B3 chain altered; also called He Ab T335_10E
B11: GpH7-A5/GpH7-B3 variant (T335_05P)/GpL16-k0 (antibody, human IgG1, kappa)
heavy 1: not shown
heavy 2: not shown
light: B1 light
notes: Heterodimerized; only the B3 chain altered; also called He Ab T335_05P
B12: GpH7-A5/GpH7-B3 variant (T335_06M)/GpL16-k0 (antibody, human IgG1, kappa)
heavy 1: not shown
heavy 2: not shown
light: B1 light
notes: Heterodimerized; only the B3 chain altered; also called He Ab T335_06M
B13: GpH7-A5/GpH7-B3 variant (I336_13S)/GpL16-k0 (antibody, human IgG1, kappa)
heavy 1: not shown
heavy 2: not shown
light: B1 light
notes: Heterodimerized; only the B3 chain altered; also called He Ab I336_13S
B14: GpH7-A5/GpH7-B3 variant (S337_20W)/GpL16-k0 (antibody, human IgG1, kappa)
heavy 1: not shown
heavy 2: not shown
light: B1 light
notes: Heterodimerized; only the B3 chain altered; also called He Ab S337_20W
B15: GpH7-A5/GpH7-B3 variant (S337_08L)/GpL16-k0 (antibody, human IgG1, kappa)
heavy 1: not shown
heavy 2: not shown
light: B1 light
notes: Heterodimerized; only the B3 chain altered; also called He Ab S337_08L
B16: GpH7-A5/GpH7-B3 variant (S337_04F)/GpL16-k0 (antibody, human IgG1, kappa)
heavy 1: not shown
heavy 2: not shown
light: B1 light
notes: Heterodimerized; only the B3 chain altered; also called He Ab S337_04F
B17: GpH7-A5/GpH7-B3 variant (S337_07I)/GpL16-k0 (antibody, human IgG1, kappa)
heavy 1: not shown
heavy 2: not shown
light: B1 light
notes: Heterodimerized; only the B3 chain altered; also called He Ab S337_07I
B18: GpH7-A5/GpH7-B3 variant (S337_15Y)/GpL16-k0 (antibody, human IgG1, kappa)
heavy 1: not shown
heavy 2: not shown
light: B1 light
notes: Heterodimerized; only the B3 chain altered; also called He Ab S337_15Y
B19: GpH7-A5/GpH7-B3 variant (T335_08L)/GpL16-k0 (antibody, human IgG1, kappa)
heavy 1: not shown
heavy 2: not shown
light: B1 light
notes: Heterodimerized; only the B3 chain altered; also called He Ab T335_08L
B20: GpH7-A5/GpH7-B3 variant (T335_07I)/GpL16-k0 (antibody, human IgG1, kappa)
heavy 1: not shown
heavy 2: not shown
light: B1 light
notes: Heterodimerized; only the B3 chain altered; also called He Ab T335_07I
B21: GpH7-A5/GpH7-B3 variant (T335_15Y)/GpL16-k0 (antibody, human IgG1, kappa)
heavy 1: not shown
heavy 2: not shown
light: B1 light
notes: Heterodimerized; only the B3 chain altered; also called He Ab T335_15Y

T1 sequence (P12314 16-292): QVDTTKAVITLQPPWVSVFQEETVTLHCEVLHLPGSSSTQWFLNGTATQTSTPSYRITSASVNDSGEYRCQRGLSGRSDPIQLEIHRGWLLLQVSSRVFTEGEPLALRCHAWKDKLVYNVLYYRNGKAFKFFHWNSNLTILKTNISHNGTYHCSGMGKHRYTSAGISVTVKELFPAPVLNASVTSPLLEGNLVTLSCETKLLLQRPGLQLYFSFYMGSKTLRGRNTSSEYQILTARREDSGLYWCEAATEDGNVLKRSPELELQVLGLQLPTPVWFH

This experiment has as its target T1, FcγRIa extracellular domain with C-terminal His tag (human, UniProt P12314 16-292).
T1 construct: extracellular domain; Expressed in FreeStyle293 cells; used as analyte in Biacore; also called FcgRI; 1a; not shown: His tag at the C terminus
Kind of experiment: SPR (Biacore), captured antibody, FcγRIa analyte; relative to GpH7-A5/GpH7-B3/GpL16-k0 = 100.
For the molecule B1, the He/Con_1a is 102 % of control.

As for B2, the He/Con_1a is 113 % of control.

Turning to B3, the He/Con_1a was 107 % of control.

For the molecule B4, the He/Con_1a is 106 % of control.

With B5, the He/Con_1a was 104 % of control.

In the case of B6, the He/Con_1a was 105 % of control.

B7: the He/Con_1a was 108 % of control.

On to B8, for which the He/Con_1a is 106 % of control.

Take B9: the He/Con_1a was 111 % of control.

For B10, the He/Con_1a was 109 % of control.

Turning to B11, the He/Con_1a is 106 % of control.

As to B12, the He/Con_1a was 107 % of control.

With B13, the He/Con_1a is 102 % of control.

On to B14, for which the He/Con_1a is 105 % of control.

For the molecule B15, the He/Con_1a was 105 % of control.

As for B16, the He/Con_1a is 106 % of control.

On to B17, for which the He/Con_1a was 105 % of control.

On to B18, for which the He/Con_1a was 104 % of control.

B19: the He/Con_1a was 115 % of control.

For B20, the He/Con_1a is 109 % of control.

As to B21, the He/Con_1a is 107 % of control.

For the origin of these results see patent publication US20180155451A1 (published 2018).
